The record followed here is US20110009283A1.

Several values for one entry are separate records, joined by “and”; a condition that tells them apart may be missing. Equal values may be shown once. Read-outs that look alike come from different tables or passages of the source. Where no end group is shown, it is not given here.

Usually Ki stands for the equilibrium dissociation constant of an inhibitor or competing ligand from its target. As a reminder, the koff is a measure of how fast the partners let go of each other. What is called kon is the rate constant with which the complex forms.

In experiment [1] the target is antiserum to sarafotoxin S6b.
The target in experiment [2] is KcsA-Kv1.3 (KcsA carrying a segment of the Kv1.3 pore loop).
For another experiment, the target named is T1, KcsA, wild-type, P0A334.
T1 chain: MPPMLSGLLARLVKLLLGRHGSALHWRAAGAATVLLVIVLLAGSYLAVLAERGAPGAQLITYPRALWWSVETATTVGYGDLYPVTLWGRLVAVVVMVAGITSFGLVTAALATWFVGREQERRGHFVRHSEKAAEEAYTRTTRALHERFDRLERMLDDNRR
As to the kind of experiment: phage panning of Shk / Camel VHH mixture on KcsA (n = 17-20).

Experiment [3] addresses antiserum to sarafotoxin S6b. This is another data set of the same source.
Experiment [4] has as its target T2, Kv1.3 K+ channel, wild-type, expressed in cells (species not stated) (Homo sapiens (Human)), P22001. The experiment can be described thus: phage panning on HEK cells transfected with Kv1.3 vs vector; 5x10^11 phagemids.
For experiment [5], the target named is T2, Kv1.3 K+ channel, wild-type, expressed …. The experiment can be described thus: panning of a 2:2:96 phage mixture on HEK cells expressing Kv1.3.
Experiment [6] has the same target. As to the kind of experiment: one round of phage panning on mammalian cells expressing Kv1.3.
For experiment [7] the target is unchanged. The experiment can be described thus: phage panning on COS cells transfected with Kv1.3 vs vector; 5x10^11 phagemids.
Experiment [8] shares this target. As to the kind of experiment: cell-based or functional assay.
Experiment [9] has the same target.
The target is the same in experiment [10]. This is another data set of the same source.
The target is the same in experiment [11]. The source holds these as a separate data set.
Experiment [12] deals with T3, Mus BK (big conductance calcium-activated K channel) (Mus), Q08460.
T3 sequence (Q08460 whole entry): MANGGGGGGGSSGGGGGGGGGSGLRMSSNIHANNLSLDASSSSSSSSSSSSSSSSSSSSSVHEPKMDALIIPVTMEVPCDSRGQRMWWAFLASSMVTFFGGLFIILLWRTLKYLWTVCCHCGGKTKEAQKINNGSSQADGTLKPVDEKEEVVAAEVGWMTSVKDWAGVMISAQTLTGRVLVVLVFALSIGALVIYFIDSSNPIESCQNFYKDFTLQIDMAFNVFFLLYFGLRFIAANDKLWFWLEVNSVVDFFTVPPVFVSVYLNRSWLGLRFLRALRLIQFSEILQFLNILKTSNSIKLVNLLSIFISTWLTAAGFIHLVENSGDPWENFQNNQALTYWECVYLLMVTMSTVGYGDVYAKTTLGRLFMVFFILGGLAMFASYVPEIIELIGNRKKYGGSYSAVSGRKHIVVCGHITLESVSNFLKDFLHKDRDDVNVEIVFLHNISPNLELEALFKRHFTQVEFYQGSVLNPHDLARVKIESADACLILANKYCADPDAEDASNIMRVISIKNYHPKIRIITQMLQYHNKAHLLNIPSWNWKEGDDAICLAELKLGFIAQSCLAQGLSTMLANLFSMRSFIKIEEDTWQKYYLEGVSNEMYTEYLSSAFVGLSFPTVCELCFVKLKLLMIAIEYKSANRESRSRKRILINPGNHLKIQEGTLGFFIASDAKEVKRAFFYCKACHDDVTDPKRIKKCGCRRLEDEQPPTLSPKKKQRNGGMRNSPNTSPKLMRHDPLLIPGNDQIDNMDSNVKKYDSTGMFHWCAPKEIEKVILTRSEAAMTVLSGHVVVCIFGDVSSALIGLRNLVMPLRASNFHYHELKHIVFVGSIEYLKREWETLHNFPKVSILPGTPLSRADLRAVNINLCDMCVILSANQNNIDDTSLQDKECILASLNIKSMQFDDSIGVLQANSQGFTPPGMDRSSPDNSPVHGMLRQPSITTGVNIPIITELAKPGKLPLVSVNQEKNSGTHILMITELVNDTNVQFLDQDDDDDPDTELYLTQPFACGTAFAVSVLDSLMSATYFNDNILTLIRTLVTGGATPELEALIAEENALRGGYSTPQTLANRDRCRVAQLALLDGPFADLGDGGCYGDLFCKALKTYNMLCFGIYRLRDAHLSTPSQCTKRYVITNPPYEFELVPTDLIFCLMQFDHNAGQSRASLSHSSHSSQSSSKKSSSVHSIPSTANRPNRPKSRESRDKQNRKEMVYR
Experiment [13] concerns the target T4, Rattus Kv1.1 (Rattus), P10499.
T4 chain: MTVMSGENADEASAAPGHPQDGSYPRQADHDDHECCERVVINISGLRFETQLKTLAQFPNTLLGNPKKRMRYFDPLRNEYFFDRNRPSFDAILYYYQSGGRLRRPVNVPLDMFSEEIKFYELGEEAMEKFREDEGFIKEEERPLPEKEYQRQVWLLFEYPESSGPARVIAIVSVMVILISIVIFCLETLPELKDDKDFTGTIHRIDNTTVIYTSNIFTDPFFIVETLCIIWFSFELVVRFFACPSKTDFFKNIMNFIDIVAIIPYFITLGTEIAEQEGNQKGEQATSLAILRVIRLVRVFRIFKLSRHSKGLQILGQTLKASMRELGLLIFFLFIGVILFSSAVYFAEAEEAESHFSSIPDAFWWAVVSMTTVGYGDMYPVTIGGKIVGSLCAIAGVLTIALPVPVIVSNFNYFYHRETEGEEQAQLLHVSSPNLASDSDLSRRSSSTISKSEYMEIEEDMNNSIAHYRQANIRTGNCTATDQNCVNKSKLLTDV

The target in experiment [14] is T5, Rattus Kv1.2 (Rattus), P63142.
T5 chain: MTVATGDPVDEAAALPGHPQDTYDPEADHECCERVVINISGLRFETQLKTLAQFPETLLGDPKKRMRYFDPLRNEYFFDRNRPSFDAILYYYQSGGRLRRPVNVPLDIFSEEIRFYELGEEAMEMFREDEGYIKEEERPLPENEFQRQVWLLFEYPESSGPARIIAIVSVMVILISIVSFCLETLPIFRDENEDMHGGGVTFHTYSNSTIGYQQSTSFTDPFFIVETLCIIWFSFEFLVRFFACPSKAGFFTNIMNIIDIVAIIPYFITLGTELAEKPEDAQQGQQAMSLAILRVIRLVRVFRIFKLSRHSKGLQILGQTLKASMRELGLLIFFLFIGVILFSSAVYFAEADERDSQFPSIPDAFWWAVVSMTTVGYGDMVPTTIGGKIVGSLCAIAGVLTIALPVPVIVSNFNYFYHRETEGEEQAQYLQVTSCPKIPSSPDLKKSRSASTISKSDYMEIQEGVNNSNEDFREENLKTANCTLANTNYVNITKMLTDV

Experiment [15] concerns the target Homo Kv1.3 (Homo), P22001.
The target in experiment [16] is BK channel (species not stated). As to the kind of experiment: cell-based or functional assay.
For experiment [17], the target named is Kv1.1 K+ channel (species not stated). The experiment can be described thus: cell-based or functional assay.
The target of experiment [18] is Kv1.2 K+ channel (species not stated). The experiment can be described thus: cell-based or functional assay.
Experiment [19] addresses T3, Mus BK (big conductance …). As to the kind of experiment: two-electrode voltage clamp, kinetics of block in Xenopus oocytes.
The target in experiment [20] is T4, Rattus Kv1.1 (Rattus), P10499. The experiment is described as above.
Experiment [21] has as its target T5, Rattus Kv1.2 (Rattus), P63142. Described as above.
Experiment [22] concerns the target Homo Kv1.3 (Homo), P22001. The experiment is described as above.

T2 sequence (P22001 whole entry): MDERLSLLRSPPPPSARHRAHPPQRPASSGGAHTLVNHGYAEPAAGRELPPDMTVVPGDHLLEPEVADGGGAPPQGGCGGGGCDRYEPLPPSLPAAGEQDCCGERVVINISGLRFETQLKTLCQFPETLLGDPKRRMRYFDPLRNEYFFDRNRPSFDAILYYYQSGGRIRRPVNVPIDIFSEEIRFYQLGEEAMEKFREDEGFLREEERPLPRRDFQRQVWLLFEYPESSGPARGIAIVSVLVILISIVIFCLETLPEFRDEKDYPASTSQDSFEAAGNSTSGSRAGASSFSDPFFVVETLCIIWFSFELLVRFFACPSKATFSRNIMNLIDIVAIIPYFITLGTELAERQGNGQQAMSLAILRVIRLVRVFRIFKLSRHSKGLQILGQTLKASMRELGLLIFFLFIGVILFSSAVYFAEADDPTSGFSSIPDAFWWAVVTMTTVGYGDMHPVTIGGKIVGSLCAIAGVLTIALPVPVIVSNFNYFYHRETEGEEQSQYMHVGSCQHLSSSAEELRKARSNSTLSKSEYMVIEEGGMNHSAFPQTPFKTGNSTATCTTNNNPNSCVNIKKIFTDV
Homo Kv1.3 (Homo), P22001, sequence (P22001 whole entry): as above

B1: sarafotoxin S6b phage (peptide)
chain: CSCKDMTDKECLYFCHQDVIW
modifications: cysteine pairing not given here; also: displayed on phage via linker and coat protein
For the molecule B1, the Output (% Ligands) in experiment [1] worked out at 100%; in experiment [2] it was 0%.
With RSCIDTIPKSRCTAFQCKHSMKYRLSFCRKTCGTC (modifications not checked) [Shk phage (sea anemone K+ channel toxin ShK on phage)], the % phages, OUTPUT in the experiment with KcsA, wild-type, P0A334 was 0%.
GVEINVKCSGSPQCLKPCKDAGMRFGKCMNRKCHCTPK (modifications not checked) [Kaliotoxin-1 phage (KTX-phage)]: in experiment [3], the Output (% Ligands) came out at 0%. The molecule also had a fold enrichment (Kv1.3-transfected vs vector cells) in [4] of 20 fold. Further, the % of phages after the 2nd panning in experiment [5] was 40%. Besides, the Fold Enrichment in [6] is 4.3 fold and 5.2 fold. In [7], this molecule came in with a fold enrichment (Kv1.3-transfected vs vector cells) of 10 fold. In experiment [8], the block of Kv1.3 currents, whole-cell patch-clamp in HEK293 cells, 1 nM KTX-phage is 35% and the time to half reversal of inhibition on washing was found to be 20 min. In experiment [9], this molecule displayed a % of recovered phage, 2nd round of 0% and a % of recovered phage, 3rd round of 58%. Moreover, the output KTX (%) in experiment [10] was 22% and 30% and 26%.
In the case of GVEINVKCSGSPQCLKPCKDAGMDFGDCMNDKCHCTPK (modifications not checked) [DDD-KTX-phage (inactive kaliotoxin-1, R24D, K27D, R31D, on phage)], in experiment [11], the # of genotype, Test is 2 colonies and the % of genotype, Test came to 10%. In experiment [9], this molecule returned a % of recovered phage, 2nd round of 100% and a % of recovered phage, 3rd round of 42%.
On to GVEINVKCSGSPQCLKPCKDAGMRFGKCMNRKCHCTPK (modifications not checked) [Kaliotoxin-1 (KTX)], for which the inhibition constant Ki in experiment [12] came out at 1.6 nM; in [13], 1.1 nM; in experiment [14], 20 nM; in [15], 0.008 nM. The approximate IC50 (nM) of channel block stood at 0.5 nM in experiment [8], 5 nM in experiment [16], 0.1 nM in experiment [17] and 1.4 nM in experiment [18]. Further, the koff in [19] came to 0.0211 s⁻¹; in experiment [20], 0.009 s⁻¹; in [21] it was 0.21 s⁻¹; in [22], 0.007 s⁻¹. The association rate constant (kon) in [19] amounted to 21000 M⁻¹ s⁻¹; in experiment [20] it was 3e+07 M⁻¹ s⁻¹; in experiment [21], 1.3e+07 M⁻¹ s⁻¹; in [22], 8e+08 M⁻¹ s⁻¹.
As for GVPINVSCTGSPQCIKPCKDAGMRFGKCMNRKCHCTPK (modifications not checked) [Agitoxin-2 (AgTx2)], the inhibition constant (Ki) in experiment [13] amounted to 0.17 nM; in experiment [14], 3.4 nM; in [15], 0.041 nM. The approximate IC50 (nM) of channel block came to 0.004 nM in experiment [8], 1150 nM in experiment [16], 0.04 nM in [17] and 26.8 nM in [18].
Consider ZFTNVSCTTSKECWSVCQRLHNTSRGKCMNKKCRCYS (modifications not checked) [Charybdotoxin (CTX)], for which the inhibition constant (Ki) in experiment [12] is 5 nM; in experiment [13], greater than 1000 nM; in experiment [14], 9 nM; in experiment [15] it was 0.9 nM. Besides, the approximate IC50 (nM) of channel block in [8] is 2.5 nM; in experiment [16], 3 nM; in experiment [17], 1500 nM; in experiment [18] it was 5.6 nM.
